Earlier results as cited in paper PMC3114466.
“And” between values parts separate entries of the source, which are not always exact repeats. Equal entries are not always repeated.

Test system: His
Conditions: free model compound in solution (inferred)

In the case of “Capped histidine model compound (acetyl-histidine-methylamide) (synthetic)”, the pKa is listed as 6.42 and 6.92 and 6.53.
